Values joined by “and” are separate entries in the source; they are usually repeats but may differ in a detail not shown here. Identical values can stand only once.
Key:
[1] = Batchwise reduction of acetophenone with coenzyme regeneration, enantioselectivity by gas chromatography; format: biochemical, Lactobacillus brevis
Protocol: In this case, 960 μl triethanolamine buffer, 50 mM, pH 7.0 with 11 mM acetophenon, 10 μl magnesium chloride (100 mM start solution); 25 μl NADP^+ (10 mM start solution), 9.4μl isopropanol, and 1 U alcohol dehydrogenase were used.

[2] = Kinetic data for the reduced coenzyme NADH (reduction of acetophenone); format: biochemical, Lactobacillus brevis
Protocol: (§1) In this N-terminal sequence certain basicity-relevant amino acids were exchanged by established genetic engineering devices and the changes in the acceptance of NAD^+ were determined basically with two values, the KM value and the kcat value. The KM value (Michaelis-Menten-constant [Mol/L]) can be considered to be a measure for the affinity of the co-enzyme to the enzyme. Preferably, the KM value is as small as possible. The kcat value (Mol formed product/mol enzyme×sec) is a measure for the conversion, it should be as high as possible. A combined value, which takes both values into consideration is the quotient kcat/KM. This should be preferably≧20 for obtaining an enzyme suitable for preparative purposes.
(§2) The successive changes of the mutated enzymes were proven by the determination of the kinetic parameters for the co-enzyme NAD^+, NAPD^+, NADH and NADPH by means of the corresponding kinetic parameters for the ketone substrate (acetophenone) or, respectively, by the oxidation reaction for the alcohol (phenylethanol). Furthermore, maintenance of the enantioselectivety was examined using the example of reduction of acetophenon. In addition, temperature-optima and stability, pH optima and stability and the iso-electric point were determined and compared with the corresponding data for the non-mutated wild-type enzyme.

[3] = Kinetic data for the oxidized coenzyme NADP+ (oxidation of phenylethanol); format: biochemical, Lactobacillus brevis
Protocol: as §1, §2

[4] = Kinetic data for the reduced coenzyme NADPH (reduction of acetophenone); format: biochemical, Lactobacillus brevis
Protocol: as §1, §2

[5] = Temperature stability (residual activity after incubation at various temperatures); format: physicochemical, Lactobacillus brevis
[6] = Isoelectric point by isoelectric focussing; format: physicochemical, Lactobacillus brevis; conditions: pH
Protocol: The isoelectric point (IP) is determined by isoelectric focussing (IEF) to be at pH 4.28. This is noteworthy particularly in comparison with the mutant 2 (see example 4). With the mutant 2, the IP is determined at 4.65 despite the fact that, in each of the two mutants, the same type of aminoacid (lysine) was exchanged; in mutant 1, it was the lysine-45 (to isoleucine) and in mutant 2, it was the lysine-48 (to methionine).

[7] = Kinetic data for the oxidized coenzyme NAD+ (oxidation of phenylethanol); format: biochemical, Lactobacillus brevis; conditions: for Kcat value / Km: coenzyme NAD+
Protocol: as §1, §2

[8] = pH stability (residual activity after incubation at various pH values); format: physicochemical, Lactobacillus brevis
Protocol: The pH stability is expressed as residual activity after a 25 hour incubation period at various pH values, the same buffers were used as for the determination of the pH optima. 45 μl of the respective buffer were mixed with 5 μl of the enzyme solution and incubated at room temperature. Samples were taken after 30 min, 60 min., 6 hours and 25 hours.

[9] = pH optimum of enzyme activity; format: biochemical, Lactobacillus brevis; conditions: for activity at pH 8.0 compared with optimum: oxidative direction
Protocol: For determining the optimal pH value, the following buffers were used: pH 4.5=Na-acetate; pH 5.0 and 5.5=Na-acetate; pH 6.0 and 6.5=Kpi or MES; pH 7.0 and 7.5=Kpi or TEA; pH 8.0 and 8.6=Tris; pH 9.0=Bicine. All buffers were used in a concentration of 100 mM. For the determination of the reductive reaction 10 mM acetophenon was added. The concentrations of NADP/NAD were each 2 mM. The concentration of NADH/NADPH was each 0.25 mM. For measurement, 970 μl of the respective buffer solution, which already included substrate at the desired concentration, was mixed with 20 μl of the start solution with the desired co-enzyme. The reaction was started with 10 μl enzyme. the dilution factor depended on the activity, it was chosen in the range of 1 to 3 U/ml.

[10] = Temperature optimum of enzyme activity; format: biochemical, Lactobacillus brevis
Protocol: The optimal temperature was determined for reductive reactions at pH 7.0 with the two coenzymes NADH and NADPH to be 55° C. in both cases. The temperature stability was determined as residual activity after 25 h incubation at various temperatures. At 37° C., still 95% reactivity was obtained; at 42° C. still 34%.

[11] = Standard enzyme test with crude extract (acetophenone reduction / phenyl ethanol oxidation); format: biochemical, Lactobacillus brevis
Protocol: In the standard enzyme test for reduction of acetophenone, with NADPH 0.032 U/mg (0.318 U/ml, 9.75 mg protein/ml) and with NADH 0.47 U/mg (4.61 U/ml; 9.75 mg protein/ml) were measured. In the reverse reaction (alcohol-oxidation) with phenyl ethanol, with NAD^+ a specific activity of 1.1 U/mg (10.8 U/ml); 9.75 protein/ml) were measured.

[12] = oxidation of phenyl ethanol with NAD+
[13] = reduction of acetophenone with NADH
[14] = reduction of acetophenone with NADPH

Row | Substance | enantioselectivity: isomer of phenylethanol formed [1] | Kcat value [2] [s⁻¹] | Km [2] | Kcat value [3] [s⁻¹] | Km [3] [µM] | Kcat value [4] [s⁻¹] | Km [4] [µM] | isoelectric point [6] | Kcat value [7] [s⁻¹] | Km [7] | also measured
1 | mutant 1/1: L. brevis ADH mutant with exchanges A9G, R38L, K45M (SEQ ID NO 17) (SNRLDGKVGIITGGTLGIGLAIATKFVEEGAKVMITGLHSDVGEMAAKSV; OTHER INFORMATION: mutant 1/1) | only the (R) isomere of phenyl ethanol | 10.3 | 188 µM | 33.3 | 502 | 166.4 | 352 | 4.85 | 33.3 | 500 µM and 502 µM | residual activity ([5]; 25 h incubation at 25° C.): 100%; residual activity ([5]; 25 h incubation at 30° C.): 59%; selectivity (kcat/KM) for NAD+ in comparison with the value for NADP+ ([7]; kcat/KM NAD+ as percent of kcat/KM NADP+): 100%
2 | mutant 2/2: L. brevis ADH mutant with exchanges A9G, R38L, H39L, K48M (SEQ ID NO 19) (SNRLDGKVGIITGGTLGIGLAIATKFVEEGAKVMITGLLSDVGEKAAMSV; OTHER INFORMATION: mutant 2/2) | the (R) isomere of phenylethanol only | 33.6 | ~70 µM and 70 µM | 30.8 | 143 | 101.1 | 370 | about 4.47 | 23.2 | 960 µM and 955 µM | residual activity ([5]; storage 6 h at 30° C.): 67%; residual activity ([5]; storage 6 h at 37° C.): 7%; residual activity ([8]; 6 h storage at pH 7.0): 100%; residual activity ([8]; 6 h storage at pH 8.5): 58%; activity at pH 8.0 compared with optimum ([9]; NAD+): 61%; activity at pH 8.0 compared with optimum ([9]; NADP+): 77%; activity at pH 7.0 compared with optimum ([9]; reduction of acetophenone with NADH, pH 7.0): 6%; activity at 60° C. relative to optimum ([10]; NADH, 60° C.): 70%; activity at 50° C. relative to optimum ([10]; NADPH, measured at 50° C.): 95%
3 | mutant 2/3: L. brevis ADH mutant with exchanges A9G, G37D, R38L, K48M (SEQ ID NO 20) | – | – | – | – | – | – | – | – | – | – | activity [11, 12]: 10.8 U/ml; specific activity [11, 12]: 1.1 U/mg; activity ([11]; oxidation of phenyl ethanol with NADP+): no activity; activity [11, 13]: 4.61 U/ml; specific activity [11, 13]: 0.47 U/mg; activity [11, 14]: 0.318 U/ml; specific activity [11, 14]: 0.032 U/mg

— US6413750B1, “(R)-specific alcohol dehydrogenases from lactobacillus with improved catalytic activity using an NAD+ substrate” (Forschungszentrum Jülich GmbH, priority 1998, dated 2002)
